Assay results as given in patent publication CN115707716A (DANSHENG MEDICAL TECH SHANGHAI CO LTD, dated 2023).

Tests used:
[1] = target: T1, VEGF-A165 (UniProt P15692-4 27-191); assay: ELISA, VEGF coated at 100 ng/well, HRP goat anti-human Fab detection
T1 construct: Isoform VEGF-A165; also called VEGF蛋白

[2] = target: T2, TGF-β1蛋白 (UniProt P01137 279-390); assay: cell-based or functional assay
[3] = target: T2, TGF-β1蛋白; assay: ELISA, TGF-β1 coated at 100 ng/well, HRP goat anti-human Fab detection

T2 sequence (P01137 279-390 limits assumed): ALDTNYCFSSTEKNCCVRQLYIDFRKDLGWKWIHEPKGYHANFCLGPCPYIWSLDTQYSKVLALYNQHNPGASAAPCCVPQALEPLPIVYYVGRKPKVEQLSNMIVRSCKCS
T1 sequence (P15692 other isoform, or with tags, fused parts or gaps limits assumed): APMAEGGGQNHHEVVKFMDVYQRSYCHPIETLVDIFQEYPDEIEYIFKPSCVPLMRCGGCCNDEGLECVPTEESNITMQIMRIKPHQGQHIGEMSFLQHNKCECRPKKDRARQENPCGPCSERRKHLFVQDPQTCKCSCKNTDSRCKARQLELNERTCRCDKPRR

- binding result [1]: no binding (tested: 200nM)
- SMAD3报告基因抑制实验 IC50 [2]: 0.337 nM
- EC50 [3]: 0.202 nM
B1: 抗TGF-β单抗12.7 (antibody, human IgG4 S228P, kappa, V domains shown)
VH: QVQLVQSGAEVKKPGASVKVSCKASGYTFTSEWMNWVRQAPGQGLEWMGQIFPALGSTNYNEMYEGRVTMTTDTSTSTAYMELRSLRSDDTAVYYCARGIGNYALDAMDYWGQGTLVTVSS
VL: DIQMTQSPSSLSASVGDRVTITCRASESVDFYGNSFMHWYQQKPGKAPKLLIYLASNLESGVPSRFSGSGSGTDFTLTISSLQPEDFATYYCQQNIEDPLTFGGGTKVEIKR
notes: also called mAb127
